From patent publication US20030059769, “High affinity nucleic acid ligands to lectins” (published 2003)

Columns and labels:
L-selectin (LS-Rg) [1] = biological target: T1, L-selectin (LS-Rg) (Homo sapiens, UniProt P14151 P14151:39-332); test: filter; room temperature; repeat of Table 13 (57 pM); conditions: tags: human IgG2 Fc fusion; chain copies: 2 (stated dimer)
T1 sequence: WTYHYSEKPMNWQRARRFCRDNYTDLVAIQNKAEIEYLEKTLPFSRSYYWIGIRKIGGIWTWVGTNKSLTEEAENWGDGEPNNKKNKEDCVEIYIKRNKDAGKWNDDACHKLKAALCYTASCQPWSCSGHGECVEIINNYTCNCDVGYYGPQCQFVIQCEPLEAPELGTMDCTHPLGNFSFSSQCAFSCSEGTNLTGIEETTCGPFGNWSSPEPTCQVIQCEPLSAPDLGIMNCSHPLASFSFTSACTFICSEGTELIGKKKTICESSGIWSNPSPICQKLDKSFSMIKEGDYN
Protocol: As described in SELEX Patent Applications and in Example 7, paragraph C, a nitrocellulose filter partitioning method was used to determine the affinity of ssDNA ligands for LS-Rg and for other proteins. For these experiments a Gibco BRL 96 well manifold was substituted for the 12 well Millipore manifold used in Example 7 and radioactivity was determined with a Fujix BAS100 phosphorimager. Bindin, data were analyzed as described in Example 7, paragraph C.

P-selectin (PS-Rg) [2] = biological target: T2, P-selectin (PS-Rg) (Homo sapiens, UniProt P16109 P16109:42-321); test: filter; conditions: tags: human IgG Fc fusion; chain copies: 2 (stated dimer)
P-selectin (PS-Rg) [3] = biological target: T2, P-selectin (PS-Rg); test: inhibition; sialyl-LewisX; conditions: tags: human IgG Fc fusion; chain copies: 2 (stated dimer)
P-selectin (PS-Rg) [4] = biological target: T2, P-selectin (PS-Rg); test: filter; Table 21 gives 63 pM; conditions: tags: human IgG Fc fusion; chain copies: 2 (stated dimer)
L-selectin (LS-Rg) [5] = biological target: T1, L-selectin (LS-Rg); test: filter; affinity similar to full length LD227; conditions: tags: human IgG2 Fc fusion; chain copies: 2 (stated dimer)
P-selectin (PS-Rg) [6] = biological target: T2, P-selectin (PS-Rg); test: filter; streptavidin complex; conditions: tags: human IgG Fc fusion; chain copies: 2 (stated dimer)
L-selectin (LS-Rg) [7] = biological target: T1, L-selectin (LS-Rg); test: filter; affinity reduction versus full length LF1514; conditions: tags: human IgG2 Fc fusion; chain copies: 2 (stated dimer)
Protocol: (§1) As described in SELEX Patent Applications, a nitrocellulose filter partitioning method was used to determine the affinity of RNA ligands for LS-Rg and for other proteins. Filter discs (nitrocellulose/cellulose acetate mixed matrix, 0.45 μm pore size, Millipore) were placed on a vacuum manifold and washed with 3 ml of SHMCK 140 buffer under vacuum. Reaction mixtures, containing ³²P labeled RNA pools and unlabeled LS-Rg, were incubated in SHMCK 140 for 10-20 min at 37° C., and then immediately washed with 3 ml SHMCK 140. The filters were air-dried and counted in a Beckman LS6500 liquid scintillation counter without fluor. Alternatively, binding studies employed 96 well micro-titer manifolds essentially as described in Example 13, paragraph E.
(§2) Predictions of minimal high affinity sequences for family 1 ligands can be made and serve as a partial test of the postulated secondary structure.

[8] = biological target: T3, L-selectin on PBMC / lymphocytes (Homo sapiens, UniProt P14151 P14151:39-372); test: flow; half-saturation; described as LD201T4 fork dimer; conditions: label: fluorescein
T3 sequence: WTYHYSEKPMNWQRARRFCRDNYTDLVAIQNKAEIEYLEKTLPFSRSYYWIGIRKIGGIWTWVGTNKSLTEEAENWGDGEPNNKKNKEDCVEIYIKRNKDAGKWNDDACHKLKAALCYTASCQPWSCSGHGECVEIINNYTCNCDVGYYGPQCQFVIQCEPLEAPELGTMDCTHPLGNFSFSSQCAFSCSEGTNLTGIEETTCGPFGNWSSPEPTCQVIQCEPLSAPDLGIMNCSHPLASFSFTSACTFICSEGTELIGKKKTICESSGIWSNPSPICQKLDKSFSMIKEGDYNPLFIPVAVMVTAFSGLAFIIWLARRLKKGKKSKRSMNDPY

[9] = biological target: T3, L-selectin on PBMC / lymphocytes; test: flow; half-saturation; described as LD201T4 dumbell dimer; conditions: label: fluorescein
P-selectin (PS-Rg) [10] = biological target: T2, P-selectin (PS-Rg); test: inhibition; sialyl-LewisX; text says about 2 nM; conditions: tags: human IgG Fc fusion; chain copies: 2 (stated dimer)
Protocol: The ability of evolved RNA pools or cloned ligands to inhibit the binding of PS-Rg to sialyl-Lewis^x was tested in competitive ELISA assays (C. Foxall et al., 1992, supra). For these assays, the wells of Corning (25801) 96 well microtiter plates were coated with 100 ng of a sialyl-Lewis^x/BSA conjugate, air dried overnight, washed with 300 μl of PBS(−) and then blocked with 1% BSA in HSMC for 60 min at room temperature. RNA ligands were incubated with PS-Rg in HSMC/1% BSA at room temperature for 15 min. After removal of the blocking solution, 50 μl of PS-Rg (10 nM) or a PS-Rg (10 nM)/RNA ligand mix was added to the coated, blocked wells and incubated at room temperature for 60 minutes. The binding solution was removed, wells were washed with 300 μl of PBS(−) and then probed with HRP conjugated anti-human IgG, at room temperature to quantitate PS-Rg binding. After a 30 minute incubation at room temperature in the dark with OPD peroxidase substrate (Sigma P9187), the extent of PS-Rg binding and percent inhibition was determined from the OD₄₅₀.

L-selectin (LS-Rg) [11] = biological target: T1, L-selectin (LS-Rg); test: filter; affinity similar to full length LD201; conditions: tags: human IgG2 Fc fusion; chain copies: 2 (stated dimer)
soluble L-selectin = biological target: T4, soluble L-selectin (Homo sapiens, UniProt P14151 P14151:39-332); test: filter; 37 C; table prints SEQ 339; conditions: tags: R&D Systems
T4 sequence: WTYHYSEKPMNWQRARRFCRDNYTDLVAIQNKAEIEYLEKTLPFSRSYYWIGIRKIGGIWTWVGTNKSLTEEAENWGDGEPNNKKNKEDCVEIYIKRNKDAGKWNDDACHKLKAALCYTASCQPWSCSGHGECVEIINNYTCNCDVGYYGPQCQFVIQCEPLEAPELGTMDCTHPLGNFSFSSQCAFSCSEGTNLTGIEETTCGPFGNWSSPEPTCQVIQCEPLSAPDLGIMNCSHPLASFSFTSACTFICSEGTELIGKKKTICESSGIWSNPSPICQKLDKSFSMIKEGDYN
Protocol: Unless otherwise indicated, all materials used in the 2′-F RNA SELEX against the L-selectin/IgG2 chimera, LS-Rg, were identical to those of Examples 7, paragraph A and 13, paragraph A. SHMCK-140 buffer, used for all SELEX and binding experiments, was 1 mM CaCl₂, 1 mM MgCC₂, 140 mM NaCl, 5 mM KCl. and 20 mM HEPES, pH 7.4. A soluble form of L-selectin, corresponding to the extracellular domains, was purchased from R&D Systems and used for some nitrocellulose filter binding experiments.
as §1

[12] = biological target: T3, L-selectin on PBMC / lymphocytes; test: flow; half-saturation, monomer; conditions: hairpin
Text: A variety of monomeric nucleic acid ligands and multivalent Complexes have been examined in flow cytometry.

L-selectin (LS-Rg) [13] = biological target: T1, L-selectin (LS-Rg); test: filter; affinity reduction versus full length LF1807; called LF1807T5 in Table 16; conditions: tags: human IgG2 Fc fusion; chain copies: 2 (stated dimer)
Protocol: as §1, §2

T2 sequence (P16109 42-321, one chain of several): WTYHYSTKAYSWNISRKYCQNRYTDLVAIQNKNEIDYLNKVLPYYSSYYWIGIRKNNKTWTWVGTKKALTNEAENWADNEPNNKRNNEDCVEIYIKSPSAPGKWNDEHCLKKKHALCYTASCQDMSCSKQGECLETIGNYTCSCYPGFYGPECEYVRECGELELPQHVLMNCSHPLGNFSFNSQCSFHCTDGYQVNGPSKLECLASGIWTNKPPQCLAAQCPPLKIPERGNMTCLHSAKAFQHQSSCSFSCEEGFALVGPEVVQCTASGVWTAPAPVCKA

B1: LD230 (ssDNA)
DNA: CTACCTACGATCTGACTAGCTGCACACCTGAGGGTTACAAGGCGCTAGACGTAACCTCTCGCTTACTCTCATGTAGTTCC
L-selectin (LS-Rg) [1]
  Kd: 0.044 nM

## CUCAACGAGUUCACAUGGGAGCAAUCUCCGAAUAAACAACACGCGAG (ssRNA, 2'-F C and U) [PF424s1]
P-selectin (PS-Rg) [2]
  Kd: 0.178 nM

## CUCAACGAACCACGGGGAAAUCCACCAGUAACACGCGAG (ssRNA, 2'-F C and U) [PF398s1]
P-selectin (PS-Rg) [3]
  IC50: 2 nM
P-selectin (PS-Rg) [4]
  Kd: 0.178 nM

## CGCGCGTTACAAGGTGCTAAACGTAACGTACTTGCTTACTCGCG (ssDNA) [LD227X1]
L-selectin (LS-Rg) [5]
  binding signal: ~1 fold

## CUCAACGAGCCAGGAACAUCGACGUCAGCAAACGCGAG (ssRNA, 2'-F C and U, biotin bound to streptavidin) [PF377s1B:SA]
P-selectin (PS-Rg) [6]
  Kd: 0.03 nM

## CUCAAAUUGCGUGUUUUCAAGCA (ssRNA, 2'-F C and U) [LF1514T2]
L-selectin (LS-Rg) [7]
  binding signal: ≥ 100 fold

B2: NX303 fork dimer (ssDNA)
DNA: TCCAGTACAAGGTGCTAAACGTAATGGTT
modifications: two copies on forked 20 kDa PEG, 5' amino C6 dT, 3'-3' terminal [1 = 5' amino modifier C6 dT; 29 = 3'-3' terminal dT; two identical copies on forked 20 kDa PEG (PEG left out)]
[8]
  EC50: 0.6 nM

B3: NX303 dumbell dimer (ssDNA)
DNA: TCCAGTACAAGGTGCTAAACGTAATGGTT
modifications: two copies on PEG 3400, 5' amino C6 dT, 3'-3' terminal [1 = 5' amino modifier C6 dT; 29 = 3'-3' terminal dT; two identical copies on PEG 3400 (PEG left out)]
[9]
  EC50: 0.1 nM

B4: PF377 (ssRNA)
RNA: GGGAGACAAGAAUAAACGCUCAACGAGCCAGGAACAUCGACGUCAGCAAACGCGAGCGCAACCAGUAACACCUUCGACAGGAGGCUCACAACAGGC
modifications: 2'-F C and U
P-selectin (PS-Rg) [10]
  IC50: 3 nM

## CGCGGTAACCAGTACAAGGTGCTAAACGTAATGGCGCG (ssDNA) [LD201T10]
L-selectin (LS-Rg) [11]
  binding signal: ~1 fold

B5: LF1520 (ssRNA)
RNA: GGGAGGACGAUGCGGAUCGAUUUCAUGCGUUUUUCGAGUGACGAUCAGACGACUCGCCCGA
modifications: 2'-F C and U
Soluble L-selectin
  Kd: 0.5 nM

## CCAGTACAAGGTGCTAAACGTAATGG (ssDNA) [LD201T4]
[12]
  EC50: 20 nM

## GGAGUCUUAGGCAGCGCGUUUUCGAGCUACUCC (ssRNA, 2'-F C and U) [LF1807T4]
L-selectin (LS-Rg) [13]
  binding signal: ~3 fold
